Assay results reported in paper PMC8809534, “Gating choreography and mechanism of the human proton-activated chloride channel ASOR” (Science Advances, 2022).

Target: the molecule itself
Assay: cryo-EM structure; single-particle cryo-EM of purified ASOR at pH 7.5 (digitonin, GDN or saposin nanodiscs) and at pH 4.5 (GDN or saposin nanodiscs; sodium citrate added); 5 mM Hepes, 150 mM NaCl; C3 symmetry; resting, activated and desensitized conformations

B1: human ASOR (TMEM206) proton-activated chloride channel (natural protein)
chain: not shown
notes: full-length human ASOR (TMEM206), UniProt Q9H813; codon-optimised synthetic cDNA; GFP tag removed with PreScission protease; residues left by the cleavage site are not described; also called PAC; acid-sensitive outwardly rectifying channel; not shown: GFP, C-terminal, cleaved
stoichiometry N: 3
